Publication PMC6890836, “Exploiting Substrate Promiscuity of Ectoine Hydroxylase for Regio- and Stereoselective Modification of Homoectoine” (Frontiers in Microbiology, 2019)

B1: (Ps)EctD, ectoine hydroxylase from P. stutzeri A1501 (Stutzerimonas stutzeri A1501) (protein)
chain: MQADLYPSRQEDQPSWQERLDPVVYRSDLENAPIAAELVERFERDGYLVIPNLFSADEVALFRAELERMRQDPAVAGSGKTIKEPDSGAIRSVFAIHKDNELFARVAADERTAGIARFILGGDLYVHQSRMNFKPGFTGKEFYWHSDFETWHIEDGMPRMRCLSCSILLTDNEPHNGPLMLMPGSHKHYVRCVGATPENHYEKSLRKQEIGIPDQNSLSELASRFGIDCATGPAGSVVFFDCNTMHGSNGNITPSARSNLFYVYNHVDNAVQAPFCEQKPRPAFVAERENFKPLDIRPQQYL
notes: full-length, Strep-tag II fusion (tag kept), from plasmid pMP41 in E. coli BL21(DE3); EctD is a dimer in solution
B2: (Sa)EctD, ectoine hydroxylase from S. alaskensis (Sphingopyxis alaskensis RB2256) (protein)
chain: MQDLYPSRQRADAEMRPRLDPVVHSEWTNDAPISARQAAAFDRDGYIVLEDIFSADEVAFLQKAAGNLLADPAALDADTIVTEPQSNEIRSIFEIHAQSPVMARLAADARLADVARFLLGDEVYIHQSRLNYKPGFKGREFYWHSDFETWHVEDGMPRMRALSMSVLLAENTPHNGPLMVIPGSHRTYLTCVGETPDDHYLSSLKKQEYGVPDEESLAELAHRHGIVAPTGKPGTVILFDCNLMHGSNGNITPFPRANAFLVYNAVSNRLEKPFGVEKPRPWFLARRGEPAALRVERGPLVETVPA
notes: full-length, Strep-tag II fusion (tag kept), from plasmid pMP40 in E. coli BL21(DE3); dimer

Legend:
Experiment in all cases: purified protein
[1] = substrate: CC1=NC(C(=O)O)CCCN1; assay type: biochemical, Stutzerimonas stutzeri; settings: 10 mM 2-oxoglutarate, 1 mM FeSO4, 100 mM KCl, 100 mM TES pH 7.5, 35 °C, no catalase
[2] = substrate: CC1=N[C@H](C(=O)O)CCN1; assay type: biochemical, Stutzerimonas stutzeri; settings: 10 mM 2-oxoglutarate, 1 mM FeSO4, 100 mM KCl, 100 mM TES pH 7.5, 35 °C, no catalase
[3] = substrate: CC1=NC(C(=O)O)CCCN1; assay type: biochemical, Sphingopyxis alaskensis; settings: 10 mM 2-oxoglutarate, 1 mM FeSO4, 100 mM KCl, 100 mM TES pH 7.5, 15 °C, 1300 U bovine catalase
[4] = substrate: CC1=N[C@H](C(=O)O)CCN1; assay type: biochemical, Sphingopyxis alaskensis; settings: 10 mM 2-oxoglutarate, 1 mM FeSO4, 100 mM KCl, 100 mM TES pH 7.5, 15 °C, 1300 U bovine catalase

Row | Protein | Km [1] [µM] | Km [2] [µM] | Km [3] [µM] | Km [4] [µM]
1 | B1 | 2600 ± 200 | 2300 ± 200 | – | –
2 | B2 | – | – | 3100 ± 300 | 800 ± 100
